Data reported in paper PMC8113546.

Tests used:
[1] = IP of B7H3-WT-Flag, ubiquitin immunoblot; settings: glycan lost; control: untreated
[2] = flow cytometry of cell-surface B7H3; settings: glycan lost
[3] = CHX chase, remaining B7H3 by immunoblot (half-life); settings: glycan lost
[4] = immunoblot, MDA-MB-231 and HCC1806; settings: glycan changed form; control: control sgRNA
[5] = flow cytometry of cell-surface B7H3, B7H3-WT cells; settings: glycan changed form; control: control sgRNA
[6] = flow cytometry of cell-surface B7H3, MDA-MB-231; settings: glycan changed form; control: untreated
[7] = B7H3 IHC of 4T1 B7H3-WT tumours; settings: glycan changed form; control: PBS
[8] = flow cytometry of cell-surface B7H3, 4T1-B7H3KO; settings: glycan lost; control: B7H3-WT

B1: B7H3: tunicamycin (TM) (protein)
parent chain: MLRRRGSPGMGVHVGAALGALWFCLTGALEVQVPEDPVVALVGTDATLCCSFSPEPGFSLAQLNLIWQLTDTKQLVHSFAEGQDQGSAYANRTALFPDLLAQGNASLRLQRVRVADEGSFTCFVSIRDFGSAAVSLQVAAPYSKPSMTLEPNKDLRPGDTVTITCSSYQGYPEAEVFWQDGQGVPLTGNVTTSQMANEQGLFDVHSILRVVLGANGTYSCLVRNPVLQQDAHSSVTITPQRSPTGAVEVQVPEDPVVALVGTDATLRCSFSPEPGFSLAQLNLIWQLTDTKQLVHSFTEGRDQGSAYANRTALFPDLLAQGNASLRLQRVRVADEGSFTCFVSIRDFGSAAVSLQVAAPYSKPSMTLEPNKDLRPGDTVTITCSSYRGYPEAEVFWQDGQGVPLTGNVTTSQMANEQGLFDVHSVLRVVLGANGTYSCLVRNPVLQQDAHGSVTITGQPMTFPPEALWVTVGLSVCLIALLVALAFVCWRKIKQSCEEENAGAEDQDGEGEGSKTALQPLKHSDSKEDDGQEIA
For B1, which “other: K48 ubiquitination” value [1] is on record?
The value was “increases”.

And the localisation_or_trafficking ([2]; control: untreated)?
Its localisation_or_trafficking is “decreases”.

And the degradation_or_half_life ([3]; control: untreated)?
Its degradation_or_half_life is “decreases”.

B2: B7H3: FUT8 knockout (protein)
parent chain: B1 parent chain
Which results are given for B2?
expression_or_secretion [4]: decreases; localisation_or_trafficking [5]: decreases

B3: B7H3: 2F-Fuc (protein)
parent chain: B1 parent chain
Which localisation_or_trafficking [6] does the source give for B3 here?
The localisation_or_trafficking was “decreases”.

B4: B7H3: B7H3-8NQ (protein)
parent chain: B1 parent chain
Which results are given for B4?
localisation_or_trafficking ([2]; control: B7H3-WT): abolishes; degradation_or_half_life ([3]; control: B7H3-WT): decreases

B5: mouse B7H3: 2F-Fuc (protein)
parent chain: MLRGWGGPSVGVCVRTALGVLCLCLTGAVEVQVSEDPVVALVDTDATLRCSFSPEPGFSLAQLNLIWQLTDTKQLVHSFTEGRDQGSAYSNRTALFPDLLVQGNASLRLQRVRVTDEGSYTCFVSIQDFDSAAVSLQVAAPYSKPSMTLEPNKDLRPGNMVTITCSSYQGYPEAEVFWKDGQGVPLTGNVTTSQMANERGLFDVHSVLRVVLGANGTYSCLVRNPVLQQDAHGSVTITGQPLTFPPEALWVTVGLSVCLVVLLVALAFVCWRKIKQSCEEENAGAEDQDGDGEGSKTALRPLKPSENKEDDGQEIA
With B5 as the protein, how does the expression_or_secretion [7] read?
Its expression_or_secretion is “decreases”.

B6: mouse B7H3: B7H3-4NQ (protein)
parent chain: B5 parent chain
For B6, which localisation_or_trafficking [8] is on record?
Its localisation_or_trafficking is “abolishes”.
